Measurements taken from patent US20120082663A1 (Genentech, published 2012).
Changes are numbered by the printed parent chain. Numbers in names are those of the source.

How the values were obtained:
[1] = target: T1, human HGF receptor Fc fusion (HGFR-Fc) (human, UniProt P08581 25-929, limits assumed); test: SPR (BIAcore-2000), HGFR-Fc immobilised on a CM5 chip, Fab injected at 4 to 500 nM, 1:1 Langmuir fit
T1 construct: Generated and used as an Fc fusion; also called HFGR-Fc; b-HGFR-Fc (biotinylated)
Experimental: (§1) Affinity determinations were performed by surface plasmon resonance using a BIAcore™-2000. HGFR-Fc was immobilized (˜1000 response units (RU)) on a CM5 chip and varied concentrations of Fab (4 to 500 nM) in PBST were injected. After each injection the chip was regenerated using 100 mM HCl. Binding response was corrected by subtracting the RU from a blank flow cell. A 1:1 Languir model of simultaneous fitting of kₒₙ and koff was used for kinetics analysis.

[2] = target: T1, human HGF receptor Fc fusion (HGFR-Fc); test: SPR (BIAcore-2000), Fab injected over immobilized HGFR-Fc; humanized clone (5D5 graft plus R94S) as Fab
Experimental: as §1
A library was generated in which each of the HVR regions of the 5D5 graft was soft randomized. This library was panned against immobilized HGFR-Fc for 4 rounds of selection. […] Analysis of this clone by phage ELISA indicated it had similar affinity to that of the monovalent affinity of murine 5D5. […] Thus this unexpected substitution restores full binding affinity to the 5D5 graft, and the 5D5 graft plus R94S (hu5D5.v1) represents a fully humanized antibody. […] MacCallum et al. (MacCallum et al. J. Mol. Biol. 262: 732-745 (1996)) have analyzed antibody and antigen complex crystal structures and found positions 93 and 94 of the heavy chain are part of the contact region thus it seems reasonable to include these positions in the definition of hypervariable region of H3 (HVR-H3) when humanizing antibodies.

[3] = target: T2, cMet-Ig protein (biotinylated) (UniProt P08581 25-929, biotinylated with NHS-X-biotin); test: electrochemiluminescent competition assay in solution: inhibition of 2.5 nM HGF-Tag (ruthenium-labelled HGF) binding to 5 nM cMet-biotin; antibody titrated
T2 construct: Purified cMet-Ig produced at Genentech; also called cMet-Ig-biotin; not shown: Ig part not described
Experimental: (§2) Purified cMet-Ig protein produced at Genentech (South San Francisco, Calif.) was biotinylated by incubating with 20-fold molar excess NHS-X-Biotin in 0.1 M NaHCO3, pH 8.5 using biotin-X-NHS (Research Organics, Cleveland, Ohio). Purified human 2-chain HGF produced at Genentech was labeled with BV-TAG (cat #110034) via NHS-ester chemistry according to manufacturer's directions (BioVeris International, Gaithersburg, Md.). cMet-Ig-biotin (500 ng/mL), HGF-Ruthenium Tag (250 ng/mL), and titrations of OA5D5 antibody ranging from 3333-0.21 nM of antibody were incubated together in a volume of 100 ul of assay diluent: PBS ±0.5% BSA/0.5% Tween 20/0.033% Proclin (Supelco Inc. Bellefonte Pa.). The mixtures were incubated in sealed polypropylene round bottom 96 well plates (Corning) for 2-4 hours at room temperature with shaking Streptavidin magnetic beads (Dynabeads, BioVeris) were added. Following a final 45 min incubation with vigorous shaking, the plates were read using a BioVeris M-Series instrument (BioVeris International, Gaithersburg, Md.).

[4] = target: T1, human HGF receptor Fc fusion (HGFR-Fc); test: SPR (Biacore), Fab over immobilized HGFR-Fc; reference hu5D5.v1
Experimental: as §1
Affinity maturation of hu5D5.v1 —To improve the affinity of hu5D5.v1, six phage display libraries were generated in the background of hu5D5.v1, each targeting a single HVR for soft randomization. To avoid re-selecting hu5D5.v1 from a potential high background of wild-type template, stop codons were introduced into the HVR to be mutated prior to generating each library. A solution sorting method was used to enhance the efficiency of the affinity-based phage selection process. By manipulating the biotinylated target concentration, reducing the phage capture time to lower backgrounds and the addition of unbiotinylated target to eliminate clones with faster off rates, high affinity clones can be proficiently selected. Lee et al., supra. […] After 4 rounds of selection, clones from each of the […] library pools were analyzed. […] Selected clones were screened by phage ELISA and then expressed as Fab protein and their affinity determined using Biacore. […]

[5] = target: T1, human HGF receptor Fc fusion (HGFR-Fc); test: SPR (BIAcore-2000), HGFR-Fc immobilised on a CM5 chip
[6] = target: murine (mouse) HGF receptor (murine (mouse), UniProt P16056 25-931, limits assumed); test: cross-species binding test, method not described (data not shown)
canine HGF receptor = canine HGF receptor (canine, UniProt Q75ZY9 25-935, limits assumed); test: as above
[7] = target: human c-Met on cells (BaF3-hMet transfected with full-length human c-Met cDNA; A549 and H358 cells) (human, UniProt P08581 25-1390); test: cell-based or functional assay
[8] = target: T2, cMet-Ig protein (biotinylated); test: electrochemiluminescent competition assay: antibody (3333-0.21 nM) against HGF-Ruthenium Tag binding to cMet-Ig-biotin
Experimental: as §2

[9] = target: T1, human HGF receptor Fc fusion (HGFR-Fc); test: SPR (BIAcore-2000), HGFR-Fc immobilised on a CM5 chip, 1:1 Langmuir fit
Experimental: as §1

[10] = target: T1, human HGF receptor Fc fusion (HGFR-Fc); test: SPR (Biacore), monovalent affinity, HGFR-Fc; murine 5D5, monovalent affinity

B1: hu5D5.v1 (5D5 graft plus R94S), expressed as Fab (Fab, V domains shown)
VH: EVQLVESGGGLVQPGGSLRLSCAASGYTFTSYWLHWVRQAPGKGLEWVGMIDPSNSDTRFNPNFKDRFTISADTSKNTAYLQMNSLRAEDTAVYYCASYGSYVSPLDYWGQGTLVTVSS
VL: DIQMTQSPSSLSASVGDRVTITCKSSQSLLYTSSQKNYLAWYQQKPGKAPKLLIYWASTRESGVPSRFSGSGSGTDFTLTISSLQPEDFATYYCQQYYAYPWTFGQGTKVEIK
notes: Fab made in E. coli from the phage display vector (human CL and CH1); also called this clone
- koff [1]: 0.000507 s⁻¹
- kon [1]: 51600 M⁻¹ s⁻¹
- Kd [2]: 9.8 nM

B2: OA-5D5.v1 one-armed anti-Met antibody (antibody, V domains shown)
VH: B1 VH
VL: B1 VL
notes: One-armed antibody named only as another antibody of the invention (OA-5D5.v1); Its constant domains and Fc polypeptides are not described; also called rhuOA5D5v1
- IC50 [3]: 5.4 nM

B3: hu5D5.v2 (clone 78), expressed as Fab (Fab, V domains shown)
VH: B1 VH with S98T, G100R, S104T
VL: DIQMTQSPSSLSASVGDRVTITCKSSQSLLYTSSQKNYLAWYQQKPGKAPKLLIYWASTRESGVPSRFSGSGSGTDFTLTISSLQPEDFATYYCQQYYAYPWTFGQGTKVEIKR
notes: Differs from hu5D5.v1 by 94T, 96R and 100T (Kabat, VH); Fab made in E. coli from the phage display vector (human CL and CH1)
- Kd [1]: 0.625 nM
- koff [1]: 0.000147 s⁻¹
- kon [1]: 236000 M⁻¹ s⁻¹
- fold affinity improvement (against hu5D5.v1) [4]: 13 fold

B4: 5D5 graft (direct HVR-graft of murine 5D5 into the human acceptor framework), displayed as an Fab on phage (Fab, V domains shown)
VH: B1 VH with S98R
VL: B1 VL
notes: subgroup III VH with R71A, N73T, L78A; grafted L1 24-34, L2 50-56, L3 89-97, H1 26-35, H2 49-65, H3 95-102; R at 94); In the assay it was a monovalent Fab-g3 fusion on phage with human CL and CH1 of the vector; also called direct HVR-graft of 5D5
- binding result [5]: no binding (tested: 500 nM)

B5: OA-5D5.v2 one-armed anti-Met antibody (antibody)
light: DIQMTQSPSSLSASVGDRVTITCKSSQSLLYTSSQKNYLAWYQQKPGKAPKLLIYWASTRESGVPSRFSGSGSGTDFTLTISSLQPEDFATYYCQQYYAYPWTFGQGTKVEIKRTVAAPSVFIFPPSDEQLKSGTASVVCLLNNFYPREAKVQWKVDNALQSGNSQESVTEQDSKDSTYSLSSTLTLSKADYEKHKVYACEVTHQGLSSPVTKSFNRGEC
heavy: not shown
chain: not shown
notes: also called rhuOA5D5v2; one-armed 5D5.v2
- binding result [6]: no binding
- binding result (canine HGF receptor): no binding
- inhibition of HGF receptor activation (KIRA, HGF-dependent Met phosphorylation in A549 cells); IC50 relative to comparator antibodies [7]: < 0.5 fold of the comparator's IC50
- inhibition of cell proliferation in the presence of HGF (BaF3-hMet cells); IC50 relative to comparator antibodies [7]: < 0.5 fold of the comparator's IC50
- IC50 relative to comparator antibody (chimeric one-armed antibody, OA-5D5.v1) [8]: < 0.5 fold of the comparator's IC50
- IC50 [3]: 1 nM

B6: murine 5D5 anti-c-met antibody, monovalent form (Fab, V domains shown)
VH: QVQLQQSGPELVRPGASVKMSCRASGYTFTSYWLHWVKQRPGQGLEWIGMIDPSNSDTRFNPNFKDKATLNVDRSSNTAYMLLSSLTSADSAVYYCATYGSYVSPLDYWGQGTSVTVSS
VL: DIMMSQSPSSLTVSVGEKVTVSCKSSQSLLYTSSQKNYLAWYQQKPGQSPKLLIYWASTRESGVPDRFTGSGSGTDFTLTITSVKADDLAVYYCQQYYAYPWTFGGGTKLEIKR
notes: also called mu5D5; hybridoma 5D5.11.6 (ATCC HB-11895)
- koff [9]: 0.000743 s⁻¹
- kon [9]: 89800 M⁻¹ s⁻¹
- Kd [10]: 8.3 nM

B7: chimeric one-armed 5D5 antibody (Fab arm from the murine parent 5D5 antibody fused to a human Fc region) (antibody, V domains shown)
VH: B6 VH
VL: B6 VL
notes: also called rchOA5D5; chimeric one-armed antibody
- IC50 [3]: 2.6 nM
